One may read the stoichiometry N as a count of units in the complex or per binding partner.

Among the data in article PMC3248148 are stoichiometry N values, retold here.

The test has as its target human p23 co-chaperone (human) (UniProt Q15185). Description: SEC; HiPrep Sephacryl S-200; each protein alone; 50mM Hepes, 150mM NaCl, 50mM KCl, 10mM MgCl2, 1mM DTT, pH 7.5; molecular weight interpolated from standards.

“human p23 co-chaperone (from UniProt Q15185 1-160) (natural protein)”: the stoichiometry N amounted to 2.
